Test results published in doi:10.1101/2025.08.25.672096 (bioRxiv, 2025).
Values belong to the binder of their own block, whether it stands above or below them.

Target: T1, GST::KIF14(901-1648) (UniProt Q15058 901-1648)
T1 sequence (looked up): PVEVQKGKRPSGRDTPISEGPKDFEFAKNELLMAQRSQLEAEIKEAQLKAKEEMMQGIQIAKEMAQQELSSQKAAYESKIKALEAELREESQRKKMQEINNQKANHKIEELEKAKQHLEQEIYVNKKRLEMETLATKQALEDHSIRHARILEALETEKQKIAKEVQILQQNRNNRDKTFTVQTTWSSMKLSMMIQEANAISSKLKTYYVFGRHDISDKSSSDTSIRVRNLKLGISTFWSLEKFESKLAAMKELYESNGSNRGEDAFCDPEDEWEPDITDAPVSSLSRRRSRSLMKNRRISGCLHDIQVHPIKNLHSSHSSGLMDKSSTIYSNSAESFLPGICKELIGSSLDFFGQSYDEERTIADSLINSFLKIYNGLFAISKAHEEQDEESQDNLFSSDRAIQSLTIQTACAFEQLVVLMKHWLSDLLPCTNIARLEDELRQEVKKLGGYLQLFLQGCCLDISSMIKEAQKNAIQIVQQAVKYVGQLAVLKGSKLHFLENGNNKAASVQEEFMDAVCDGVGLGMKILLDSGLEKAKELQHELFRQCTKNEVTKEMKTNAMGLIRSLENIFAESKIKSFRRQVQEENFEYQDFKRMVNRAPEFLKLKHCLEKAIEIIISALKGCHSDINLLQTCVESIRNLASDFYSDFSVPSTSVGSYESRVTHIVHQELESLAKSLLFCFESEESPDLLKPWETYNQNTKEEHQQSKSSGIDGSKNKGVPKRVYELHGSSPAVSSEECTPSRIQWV
Experiment: pull-down

binding result: binds
B1: MBP::CIT-K(420-585) (domain or fragment, human, UniProt O14578-4 420-585, looked up)
chain: SYSKALGILGRSESVVSGLDSPAKTSSMEKKLLIKSKELQDSQDKCHKMEQEMTRLHRRVSEVEAVLSQKEVELKASETQRSLLEQDLATYITECSSLKRSLEQARMEVSQEDDKALQLLHDIREQSRKLQEIKEQEYQAQVEEMRLMMNQLEEDLVSARRRSDLY

binding result: binds
B2: MBP::CIT-K(420-585) phosphorylated in vitro by CDK1-cyclin B (pS440) (domain or fragment, human, UniProt O14578-4 420-585, looked up)
chain: B1 chain
modifications: phosphoserine at 440 (detected with the CIT-K pS440 antibody)
